Data: a protein production outcome set (Wang et al. 2014)

Assay: label from the status in PepcDB records
For “MGGITMTAVVSNRDKINFHEVADHYHSNKIIFGIKFLKNWALERLASCAPVPSWRAKLHKMRGVNIGENVYIGYDVIFDRIHPEMITVGDYAEIGDRCILSAHSRGSLTTRQAYPRSIAPIKIGRGVSVNPGCIITQGVEIGDNSIIGVGSVVSRNISPNSLALGYPAKVIKKLDGLEHHHHHH”, the protein production was “not failed”.
With “MGGITMTAVVSNRDKINFHEVADHYHSNKIIFGIKFLKNWALERLASCAPVPSWRAKLHKMRGVNIGENVYIGYDVIFDRIHPEMITVGDYAEIGDRCILSAHSRGSLTTRQAYPRSIAPIKIGRGVSVNPGCIITQGVEIGDNSIIGVGSVVSRNISPNSLALGYPAKVIKKLDGVGELQTLEHHHHHH” the protein production was “failed”.
In the case of “MGGKMRLLPIRKISRQSKRLALFLTFCAGYVDAYTFIVRGNTLVAGQTGNVVFLSVELIKNNVSDVRDKVLTLLAFMMGVFLLTIYKEKLRIVKKP”, the protein production is reported as “failed”.
With “MGGPAYDCLTNPLGAVRFSFVNALSSGYDPASSVGKDWGVVDLFRHYFSDESAISQVPILDSSSIKWVQPKTLVRFRGMIQDMLGNEFYAGAYKDDSTWRTNKYSDVSQFPEGSSTEIQVWERRLLYCVPVPGKNQWTECSSQELKNRFLDLTGQNREKRVRVDEEMTDSMDSSKVGEATSSASESQVPQTSGIPPATSADSLPCLVKIYDSPESDLKLNDVVEFLGVLTFDPIVMMDTDTLDENSDALSEAESVQMPSGKQPKSPQIFKEIRESLMKYLTGLLGNDHIAAQFLLLHLLSKVHGRVDNVAVGKLSLNLIHLNKESMSIFGTQLSGALKSLLPFTQSIPLTIEYLNTASFGPKKDYGINRLMPGVLQIADGTHLILDETELQPGTLNSVGVENANLLKNLLECQKVEYDFQYYKMEMATDVQMLIFSEGKSNIMPADLVLPLQPSQVNSLEVITPETAETWRCYLATCKSLSHSIGQELQQVVENDLVAARQTDRSLGSQDLSRLLTMARMMSVSYGETTLSLEHWQMVLELERLRKERLK” the protein production was “failed”.
With “MGGSLRVAVLGAPGVGKTAIIRQFLFGDYPERHRPTDGPRLYRPAVLLDGAVYDLSIRDGDVAGPGSSPGGPEEWPDAKDWSLQDTDAFVLVYDICSPDSFDYVKALRQRIAETR” the protein production was “failed”.
With “MGHFDTPSLSRDAALLPDTGEPGFGVYVHWPFCAAKCPYCDFNSHVRHQPVDQERFAAAFLKEMAAVRAMSGPKTVTSIFLGGGTPSLMKPETVSAILDGIARHWHVPAGIEITMEANPSSVEAERFRGYRAAGVNRVSLGVQALNDRDLKFLGRLHDVADALKAIRLAREIFPRMSFDLIYARPDQTVDEWEKELKEAISYAVDHLSLYQLTIEEGTPFFGLHKSGKLIVPDGEQSALLYEATQEITAREGMPAYEVSNHARPGAESRHNLTYWRYGDYAGIGPGAHGRLTRGHEKLATATERKPEAWLEMVERDGHGILDEERLGFEEQSDELLLMGLRLREGVDLARWQQLSGRELDPKREEFLLEHKFIERIGNSRLRCTSAGMLILDSVVADLAC” the protein production was “failed”.
With “MGHHHHHHENLYFQSHMDSKRAALESGDGPDAKRLDTTDDQDKEASGGDGSQVMLAKHVAPYTGHGCTPPMESYLFEPTPAGSQLLPWKTSVDLDNDAELEKPTSDKKPDTAKLSRRELAKMRREHTLRALALERELTNKPGQTPASEVLLVRFPDPEITAPMLAG” the protein production was “not failed”.
For “MGHHHHHHENLYFQSHMKFLLAFSLLIPSVVFASSSKFQQVEQDVKAIEVSLSARIGVSVLDTQNGEYWDYNGNQRFPLTSTFKTIACAKLLYDAEQGKVNPNSTVEIKKADLVTYSPVIEKQVGQAITLDDACFATMTTSDNTAANIILSAVGGPKGVTDFLRQIGDKETRLDRIEPDLNEGKLGDLRDTTTPKAIASTLNKFLFGSALSEMNQKKLESWMVNNQVTGNLLRSVLPAGWNIADRSGAGGFGARSITAVVWSEHQAPIIVSIYLAQTQASMEERNDAIVKIGHSIFDVYTSQSR”, the protein production was “not failed”.
In the case of “MGHHHHHHSHDPFAHLPKSTFVLDEFKRKYSNEDTLSVALPYFWEHFDKDGWSLWYSEYRFPEELTQTFMSCNLITGMFQRLDKLRKNAFASVILFGTNNSSSISGVWVFRGQELAFPLSPDWQVDYESYTWRKLDPGSEETQTLVREYFSWEGAFQHVGKAFNQGKIFK”, the protein production is reported as “not failed”.
In the case of “MGHHHHHHSHIEETTMTTQTPAPIQAPSAILPLPGQSVERLCVDPRHRQGPVNLLSDPEQGVEVTGQYEREKAGFSWIEVTFKNPLVWVHASPEHVVVTRNRRSSAYKWKETLFSVMPGLKMTMDKTGLLLLSDPDKVTIGLLFWDGRGEGLRLLLRDTDRFSSHVGGTLGQFYQEVLWGSPAASD”, the protein production is reported as “failed”.
With “MGHHHHHHSHLYPGSVYGRLIDLCQPTQKKYQIAVTKVLGKNMDAIIVDSEKTGRDCIQYIKEQRGEPETFLPLDYLEVKPTDEKLRELKGAKLVIDVIRYEPPHIKKALQYACGNALVCDNVEDARRIAFGGHQRHKTVALDGTLFQKSGVISG” the protein production was “not failed”.
In the case of “MGHHHHHHSHMAFPSDATAEQGPILTKHGKNPVMELNEKRRGLKYELISETGGSHDKRFVMEVEVDGQKFQGAGSNKKVAKAYAALAALEKLFPDTPLALDANK”, the protein production is reported as “failed”.
With “MGHHHHHHSHMAPWRKADKERHGVAIYNFQGSGAPQLSLQIGDVVRIQETCGDWYRGYLIKHKMLQGIFPKSFIHIK” the protein production was “failed”.
With “MGHHHHHHSHMASLTVKAYLLGKEDAAREIRRFSFCCSPEPEAEAEAAAGPGPCERLLSRVAALFPALRPGGFQAHYRDEDGDLVAFSSDEELTMAMSYVKDDIFRIYIKEKKECRRDHRPPCAQEAPRNMVHP” the protein production was “failed”.
In the case of “MGHHHHHHSHMDVTIQHPWFKRTLGPFYPSRLFDQFFGEGLFEYDLLPFLSSTISPYYRQSLFRTVLDSGISEVRSDRDKFVIFLDVKHFSPEDLTVKVQDDFVEIHGKHNERQDDHGYISREFHRRYRLPSNVDQSALSCSLSADGMLTFCGPKIQTGLDATHAER”, the protein production is reported as “failed”.
In the case of “MGHHHHHHSHMGKITFYEDRAFQGRSYETTTDCPNLQPYFSRCNSIRVESGCWMLYERPNYQGQQYLLRRGEYPDYQQWMGLSDSIRSCCLIPQTVSHRLRLYEREDHKGLMMELSEDCPSIQDRFHLSEIRSLHVLEGCWVLYELPNYRGRQYLLRPQEYRRCQDWGAMDAKAGSLRRVVDLY”, the protein production is reported as “not failed”.
With “MGHHHHHHSHMGRGKGPAAEEPLSLLDDMNHCYSRLRELVPGVPRGTQLSQVEILQRVIDYILDLQVV” the protein production was “not failed”.
In the case of “MGHHHHHHSHMIQYIPQRPPIVMISTLVSAEKNVTETELEIPAHGLFVKDGVLHEPGLIENVAQTAAAGVGYACTLTSQPVPVGFIGAVKNLEIDYLPKVGDVLETRVEVLEEIFDMTLIKGESFVKGKRVLTCEMKIVLKK”, the protein production is reported as “failed”.
With “MGHHHHHHSHMLITVYCVRRDLSEVTFSLQVSPDFELRNFKVLCEAESRVPVEEIQIIHMERLLIEDHCSLGSYGLKDGDIVVLLQKDNVGPRAPGRAPNQPRVDFSGIAVPGTSSSRPQHPGQQQQRTPAAQRSQGLASGEKVAGLQGLGSPALIRSMLLSNPHDLSLLKERNPPLAEALLSGSLETFSQVLMEQQREKALREQERLRLYTADPLDREAQAKIEEEIRQQNIEENMNIAIEEAPESFGQVTMLYINCKVNGHPLKAFVDSGAQMTIMSQACAERCNIMRLVDRRWAGVAKGVGTQRIIGRVHLAQIQIEGDFLQCSFSILEDQPMDMLLGLDMLRRHQCSIDLKKNVLVIGTTGTQTYFLPEGELPLCSRMVSGQDESSDKEITHSVMDSGRKEH” the protein production was “failed”.
In the case of “MGHHHHHHSHMNSCILQATVVEAPQLRYTQDNQTPVAEMVVQFPGLSSKDAPARLKVVGWGAVAQELQDRCRLNDEVVLEGRLRINSLLKPDGNREKQTELTVTRVHHLTLDSATGI”, the protein production is reported as “failed”.
With “MGHHHHHHSHMPDHGDWTYEEQFKQLYELDGDPKRKEFLDDLFSFMQKRGTPVNRIPIMAKQVLDLFMLYVLVTEKGGLVEVINKKLWREITKGLNLPTSITSAAFTLRTQYMKYLYPYECEKRGLSNPNELQAAIDSNRREGRR” the protein production was “not failed”.
In the case of “MGHHHHHHSHMSEYLAAADYLPHSAPMVLVDEVIHVDDEHAHCRVAVSREGILAPFLNAQGHLPAWFGIEIIAQTIGVWSGWHGRQSLGLQEKPRPGMLLGGRGYHCQQAIFPAGSLLDVTVMLVMRDEKIGSFEGEIAIDGEKYASGRLNTYQPDDRELNILLEQGKPL”, the protein production is reported as “failed”.
With “MGHHHHHHSHMSHYRPELPAPRTDWSLSDVDQWDTAALADGIKSFLLALPAPLVTPEASAEARRALREAAGPVGPALEPPTLPLHRALTLRFLLQHLGRVARRAPALGPAVRALGATF” the protein production was “failed”.
In the case of “MGHHHHHHSHMTDPSKLAVAVVCSSNMNRSMEAHNFLAKKGFNVRSYGTGERVKLPGMAFDKPNVYEFGTKYEDIYRDLESKDKEFYTQNGLLHMLDRNRRIKKCPERFQDTKEQFDIIVTVEERVYDLVVMHMESMESVDNRPVHVLNVDVVDNAEDALMGAFVITDMINMMAKSTDLDNDIDELIQEFEERRKRVILHSVLFY”, the protein production is reported as “not failed”.
For “MGHHHHHHSHMTLRCLEPSGNGGEGTRSQWGTAGSAEEPSPQAARLAKALRELGQTGWYWGSMTVNEAKEKLKEAPEGTFLIRDSSHSDYLLTISVKTSAGPTNLRIEYQDGKFRLDSIICVKSKLKQFDSVVHLIDYYVQMCKDKRTGPEAPRNGTVHLYLTKPLYTSAPSLQHLCRLTINKCTGAIWGLPLPTRLKDYLEEYKFQV”, the protein production was “failed”.
For “MGHHHHHHSHMVASWELRVEGRLLEDSALSKYDATKQKRKFSSFFKSLVIELDKDLYGPDNHLVEWHRTATTQETDGFQVKRPGDVNVRCTVLLMLDYQPPQFKLDPRLARLLGIHTQTRPVIIQALWQYIKTHKLQDPHEREFVI”, the protein production was “failed”.
In the case of “MGHHHHHHSHPQLLHFVDQYREQLIARVTSVEVVLDKLHGQVLSQEQYERVLAENTRPSQMRKLFSLSQSWDRKCKDGLYQALKETHPHLIMELWEKGSKKGLLPLSS”, the protein production is reported as “not failed”.
For “MGHHHHHHSHSWDFGAFQSSSATDSSMEEIFQHLMAYHQEASKRISSHIPLIIQFFMLQTYGQQLQKAMLQLLQDKDTYSWLLKERSDTSDKRKFLKERLARLTQARRRLAQFPG”, the protein production was “failed”.
With “MGHNAINRLQLVATLAEREVMRYTPAGVPIVNCLLSYSGQAMEAQAARQVEFSIEALGAGKMASVLDRIAPGTVLECVGFLARKHRSSKALVFHISGCNVFVKDLEHHHHHH” the protein production was “not failed”.
With “MGHQSSWMKQTVIDSVVQSSKVGVFSMFSMDYKAPRKYSHGRNFGVARQQDFAADIVTRRPYAPYDNGMKKGPNKLSRNLVWTSKEYKSPEGNRPRQNAANGSAKPQVIGTGHRVSNQPRKNAVYGPRSSSLSDTRGCGPRLNGSPKKSVCNFWKDGNCKKGEKCQFLHSWSCFPGLAMVAALEGHKNDIKGIALPQGSDKLFSVSGDGTLLIWDCNSGQCVRSINLQAEAGSLISEGPWVFLGLPNAVKAFNVQNSKDVHLEGVVGQVHAMTAANGMLFAGTSSGSILVWKATDSESDPFKYLTSLEGHHSGEVTCFVVGGEVLYSGSVDKTIKVWDLNTLQCRMTLKQHIGTVTSLLCWDKCLISSSLDGTIKLWACSENESLKVVQTRKQELSVHTLCGMHDAEAKPIMFCSYQNGAVGIFDLPSFEERGKMFSTQTICTLTIGPGGLLFSGDKSGNLRVWSLASGTKV” the protein production was “failed”.
With “MGIDELYKKEFGIVAGVDEAGRGCLAGPVVAAAVVLEKEIEGINDSKQLSPAKRERLLDEIMEKAAVGIGIASPEEIDLYNIFNATKLAMNRALENLSVKPSFVLVDGKGIELSVPGTCLVKGDQKSKLIGAASIVAKVFRDRLMSEFHRMYPQFSFHKHKGYATKEHLNEIRKNGVLPIHRLSFEPVLELLTDDLLREFFEKGLISENRFERILNLLGARKSVVFRKERTNHNLPLF” the protein production was “not failed”.
For “MGIELVMENAHWFWLSLGGLLLAAEMLGGSGYLLWSGLSAVLVGLLTWIMPLGWPWQGTIFAILTIVTALLWWYWLRKRTLSRPPSTLNQRGQQLVGLRATVSESVTNGFGRVNIGDSSWRVKSEQDLPAGTHVEVIAVDGITLHVRSIER”, the protein production was “failed”.
